Assay results reported in PMC6614819 (Nucleic Acids Research, 2019).

Assays:
Test in all cases: SEC
[1] = target: TmTsaD K213A (Thermotoga maritima, UniProt Q9WXZ2 1-327, K213A)
[2] = target: TmTsaD D182A (Thermotoga maritima, UniProt Q9WXZ2 1-327, D182A)
[3] = target: TmTsaD K166A (Thermotoga maritima, UniProt Q9WXZ2 1-327, K166A)
[4] = target: TmTsaD D165A (Thermotoga maritima, UniProt Q9WXZ2 1-327, D165A)
[5] = target: TmTsaD S134A (Thermotoga maritima, UniProt Q9WXZ2 1-327, S134A)
[6] = target: T. maritima TsaD (TmTsaD), wild type (Thermotoga maritima, UniProt Q9WXZ2 1-327)

Measured: binding result

Chain of T. maritima TsaD (TmTsaD), wild type (Q9WXZ2 whole entry): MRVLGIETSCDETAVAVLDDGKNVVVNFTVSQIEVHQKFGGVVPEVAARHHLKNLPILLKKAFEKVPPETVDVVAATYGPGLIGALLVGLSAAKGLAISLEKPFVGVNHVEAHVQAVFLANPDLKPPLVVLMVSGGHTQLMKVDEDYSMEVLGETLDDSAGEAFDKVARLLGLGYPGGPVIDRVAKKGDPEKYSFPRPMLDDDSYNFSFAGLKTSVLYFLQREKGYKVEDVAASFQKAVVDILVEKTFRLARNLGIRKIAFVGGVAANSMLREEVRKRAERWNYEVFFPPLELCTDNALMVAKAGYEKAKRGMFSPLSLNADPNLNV
Chain of TmTsaD K213A (Q9WXZ2 whole entry K213A): as the sequence (Q9WXZ2 whole entry) above, with K213A counted along it
Chain of TmTsaD D165A (Q9WXZ2 whole entry D165A): as the sequence (Q9WXZ2 whole entry) above, with D165A counted along it
Chain of TmTsaD D182A (Q9WXZ2 whole entry D182A): as the sequence (Q9WXZ2 whole entry) above, with D182A counted along it
Chain of TmTsaD K166A (Q9WXZ2 whole entry K166A): as the sequence (Q9WXZ2 whole entry) above, with K166A counted along it
Chain of TmTsaD S134A (Q9WXZ2 whole entry S134A): as the sequence (Q9WXZ2 whole entry) above, with S134A counted along it

B1: T. maritima TsaB (TmTsaB), wild type (natural protein, Thermotoga maritima)
chain: MNVLALDTSQRIRIGLRKGEDLFEISYTGEKKHAEILPVVVKKLLDELDLKVKDLDVVGVGIGPGGLTGLRVGIATVVGLVSPYDIPVAPLNSFEMTAKSCPADGVVLVARRARKGYHYCAVYLKDKGLNPLKEPSVVSDEELEEITKEFSPKIVLKDDLLISPAVLVEESERLFREKKTIHYYEIEPLYLQKSIAELNWEKKKRG
binds: [1] | [2] | [3] | [4] | [5]

B2: TmTsaB deletion mutant lacking the C-terminal helix and tail Leu189-Gly206 (domain or fragment, Thermotoga maritima, UniProt Q9WZX7 1-188, looked up)
chain: MNVLALDTSQRIRIGLRKGEDLFEISYTGEKKHAEILPVVVKKLLDELDLKVKDLDVVGVGIGPGGLTGLRVGIATVVGLVSPYDIPVAPLNSFEMTAKSCPADGVVLVARRARKGYHYCAVYLKDKGLNPLKEPSVVSDEELEEITKEFSPKIVLKDDLLISPAVLVEESERLFREKKTIHYYEIEP
binds: [6]
